Here are results for 62 sequences from the supplement of paper PMC7877785.

± gives the uncertainty stated by the source.

The nature of the series: self-splicing fitness, log relative to wild type (ln ratio); higher = more splicing; Tetrahymena group I intron in knt gene, E. coli kanamycin selection, DiMSum; sequences stand for … in CUCUCU…GGAGGGAAAAGUUAUCAGGCAUGCACCUGGUAGCUAGUCUUUAAACCAAUAGAUUGCAUCGGUUUAAAAGGCAAGACCGUCAAAUUGCGGGAAAGGGGUCAACAGCCGUUCAGUACCAAGUCUCAGGGGAAACUUUGAGAUGGCCUUGCAAAGGGUAUGGUAAUAAGCUGACGGACAUGGUCCUAACCACGCAGCCAAGUCCUAAGUCAACAGAUCUUCUGUUGAUAUGGAUGCAGUUCACAGACUAAAUGUCGGUCGGGGAAGAUGUAUUCUUCUCAUAAGAUAUAGUCGGACCUCUCCUUAAUGGGAGCUAGCGGAUGAAGUGAUGCAACACUGGAGCCGCUGGGAACUAAUUUGUAUGCGAAAGUAUAUUGAUUAGUUUUGGAGUACUCGUGGUCG
The method in brief:
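A randomised library covering all eight P1ex-region intron nucleotides was built with the intron in the knt kanamycin-resistance gene on pET-22b(+) and held in E. coli BL21(DE3). Cells were grown overnight at 37°C or 30°C on LB agar, with or without 25 μg/mL kanamycin, plus 100 μg/mL carbenicillin, 50 μM IPTG and 0.2% rhamnose, and pooled colonies were amplicon-sequenced on an Illumina HiSeq 2500. DiMSum fitness is the error-weighted combination of wild-type-normalised replicate fold changes, kanamycin versus none.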

Regarding GUGAAGCAAUAUUACGCUAA, the “self-splicing fitness (ln)” value by setting is: (30 °C) -1.25 ± 0.15; (37 °C) -0.0384 ± 0.17.
For AGAUAGCAAUAUUACGAUGG the same measures were -2.2 ± 0.14 and -3.07 ± 0.22.
For AUGUAGCAAUAUUACGCGCC the same measures were -0.455 ± 0.077 and -0.312 ± 0.096.
With GCACAGCAAUAUUACGACCG, the “self-splicing fitness (ln)” value (30 °C) was -1.14 ± 0.098 and the “self-splicing fitness (ln)” value (37 °C) came to 0.0916 ± 0.15.
Regarding UGAGAGCAAUAUUACGUGGU, the “self-splicing fitness (ln)” value (30 °C) was -2.67 ± 0.14 and the “self-splicing fitness (ln)” value (37 °C) is -2.61 ± 0.2.
Take AAUUAGCAAUAUUACGUUGU: the “self-splicing fitness (ln)” value runs as follows: (30 °C) -3.79 ± 0.15; (37 °C) -1.72 ± 0.15.
GGCCAGCAAUAUUACGACCC: for the setting “37 °C”, the “self-splicing fitness (ln)” value was -1.48 ± 0.44.
Take AGAAAGCAAUAUUACGUUCG: the “self-splicing fitness (ln)” value runs as follows: (30 °C) -0.631 ± 0.07; (37 °C) 0.484 ± 0.092.
In the case of ACGAAGCAAUAUUACGCACA, the “self-splicing fitness (ln)” value is -0.494 ± 0.096 (30 °C) and -0.0286 ± 0.098 (37 °C).
The corresponding values for AGAAAGCAAUAUUACGAGUU are -1.58 ± 0.084 and -0.668 ± 0.11.
The corresponding values for CGAGAGCAAUAUUACGAUCA are -2.63 ± 0.38 and -1.75 ± 0.38.
For CCUAAGCAAUAUUACGCCAG the same measures were -2.8 ± 0.26 and -2.13 ± 0.29.
For UUUGAGCAAUAUUACGCAUC, the “self-splicing fitness (ln)” value was -3.03 ± 0.28 (30 °C) and -2.39 ± 0.38 (37 °C).
Turning to UAUUAGCAAUAUUACGAGGU, the “self-splicing fitness (ln)” value was -2.64 ± 0.24 (30 °C) and -2.27 ± 0.35 (37 °C).
The corresponding values for AUGAAGCAAUAUUACGGUAG are -2.93 ± 0.17 and -2.03 ± 0.23.
The corresponding values for CGCCAGCAAUAUUACGCCUA are -3 ± 0.36 and -1.98 ± 0.32.
The corresponding values for UCAAAGCAAUAUUACGACAA are -1.96 ± 0.19 and -1.22 ± 0.14.
For UGACAGCAAUAUUACGGCAU, the “self-splicing fitness (ln)” value (30 °C) was -1.88 ± 0.073 and the “self-splicing fitness (ln)” value (37 °C) is -0.478 ± 0.087.
For GUUGAGCAAUAUUACGCUCG the same measures were -2.49 ± 0.16 and -2.34 ± 0.3.
The corresponding values for CGCUAGCAAUAUUACGGGUA are -0.542 ± 0.11 and -0.011 ± 0.12.
In the case of GUUCAGCAAUAUUACGGGUU, the “self-splicing fitness (ln)” value reads like this: (30 °C) -1.65 ± 0.089; (37 °C) -0.108 ± 0.083.
For CCCUAGCAAUAUUACGCAUU the same measures were -3.74 ± 0.28 and -2.82 ± 0.43.
For CCUGAGCAAUAUUACGUAUC, the “self-splicing fitness (ln)” value (37 °C) is -2.46 ± 0.23.
In the case of UGCCAGCAAUAUUACGCCAU, the “self-splicing fitness (ln)” value was -3.3 ± 0.28 (30 °C) and -2.48 ± 0.26 (37 °C).
The corresponding values for AGUUAGCAAUAUUACGACUC are -2.36 ± 0.32 and -1.83 ± 0.38.
The corresponding values for GCAGAGCAAUAUUACGGUGA are -2.68 ± 0.22 and -2.53 ± 0.24.
The corresponding values for GCCCAGCAAUAUUACGGUCC are -3.39 ± 0.18 and -1.97 ± 0.28.
Regarding AUGUAGCAAUAUUACGGGUG, the “self-splicing fitness (ln)” value (30 °C) is -3.85 ± 0.29 and the “self-splicing fitness (ln)” value (37 °C) is -2.54 ± 0.18.
As for UACGAGCAAUAUUACGAUUG, the “self-splicing fitness (ln)” value (30 °C) was -3.62 ± 0.25 and the “self-splicing fitness (ln)” value (37 °C) was -0.584 ± 0.2.
Consider UACUAGCAAUAUUACGACUA, for which the “self-splicing fitness (ln)” value is, setting by setting: (30 °C) 0.113 ± 0.097; (37 °C) 0.792 ± 0.11.
For UUAGAGCAAUAUUACGCUUU the same measures were -3.62 ± 0.37 and -2.02 ± 0.32.
The corresponding values for CAUCAGCAAUAUUACGUUCA are -2.66 ± 0.16 and -1.77 ± 0.15.
The corresponding values for UCUCAGCAAUAUUACGUUCG are -3.46 ± 0.2 and -2.28 ± 0.25.
For the sequence GUCGAGCAAUAUUACGGGGC, the “self-splicing fitness (ln)” value (37 °C) was -1.57 ± 0.28.
As to UUCUAGCAAUAUUACGCUAA, the “self-splicing fitness (ln)” value (30 °C) was -2.53 ± 0.21 and the “self-splicing fitness (ln)” value (37 °C) is -0.91 ± 0.14.
For UCCAAGCAAUAUUACGGGCG the same measures were -1.05 ± 0.073 and -0.839 ± 0.085.
For GUUUAGCAAUAUUACGAGCA, the “self-splicing fitness (ln)” value reads like this: (30 °C) -1.35 ± 0.25; (37 °C) -0.983 ± 0.48.
For AUUGAGCAAUAUUACGCACC the same measures were -1.98 ± 0.3 and -1.84 ± 0.43.
The corresponding values for AAAAAGCAAUAUUACGUUCU are -0.294 ± 0.066 and -0.0468 ± 0.083.
The corresponding values for ACACAGCAAUAUUACGCACG are -0.797 ± 0.093 and -0.607 ± 0.12.
With GGCCAGCAAUAUUACGCCGA, the “self-splicing fitness (ln)” value runs as follows: (30 °C) -1.54 ± 0.16; (37 °C) -1.18 ± 0.14.
The corresponding values for UGCUAGCAAUAUUACGACUC are -2.59 ± 0.27 and -0.141 ± 0.2.
For GCUAAGCAAUAUUACGCUGG the same measures were -4.23 ± 0.24 and -2.76 ± 0.26.
Turning to UUUGAGCAAUAUUACGGGUA, the “self-splicing fitness (ln)” value (30 °C) was -2.8 ± 0.46.
Take AUUAAGCAAUAUUACGGCUC: the “self-splicing fitness (ln)” value by setting is: (30 °C) -0.973 ± 0.16; (37 °C) 0.244 ± 0.17.
With CUCGAGCAAUAUUACGUAUA, where the note is “37 °C”, the “self-splicing fitness (ln)” value is -2.29 ± 0.31.
Turning to CCAGAGCAAUAUUACGUCAU, the “self-splicing fitness (ln)” value (30 °C) was -3.64 ± 0.28 and the “self-splicing fitness (ln)” value (37 °C) was -2.81 ± 0.18.
The corresponding values for AGUGAGCAAUAUUACGAGAU are -3.9 ± 0.23 and -1.49 ± 0.19.
For the sequence AGAGAGCAAUAUUACGGAAG, the “self-splicing fitness (ln)” value by setting is: (30 °C) -3.74 ± 0.33; (37 °C) -1.32 ± 0.22.
CUCGAGCAAUAUUACGAGUU: the “self-splicing fitness (ln)” value (37 °C) is -2.42 ± 0.24.
Take UGAUAGCAAUAUUACGCAGA: the “self-splicing fitness (ln)” value is -3.31 ± 0.24 (30 °C) and -1.38 ± 0.11 (37 °C).
GGUGAGCAAUAUUACGCGUG: the “self-splicing fitness (ln)” value is, setting by setting: (30 °C) -1.22 ± 0.16; (37 °C) -1.52 ± 0.21.
The corresponding values for GCAAAGCAAUAUUACGAUAG are -2.23 ± 0.11 and -0.989 ± 0.12.
The corresponding values for UGCUAGCAAUAUUACGACCA are 0.141 ± 0.17 and 0.148 ± 0.27.
For UUCUAGCAAUAUUACGUUCA the same measures were -0.579 ± 0.16 and -1.11 ± 0.18.
For GAUUAGCAAUAUUACGUACG, the “self-splicing fitness (ln)” value by setting is: (30 °C) -1.1 ± 0.13; (37 °C) 0.136 ± 0.15.
For CAAGAGCAAUAUUACGCCGC the same measures were -2.67 ± 0.25 and -1.99 ± 0.26.
As to CGGGAGCAAUAUUACGGGGC, the “self-splicing fitness (ln)” value (37 °C) was -2.14 ± 0.43.
On to AUAGAGCAAUAUUACGAGCG, for which the “self-splicing fitness (ln)” value was -2.43 ± 0.21 (30 °C) and -1.07 ± 0.22 (37 °C).
For UCUGAGCAAUAUUACGAGAU the same measures were -3.79 ± 0.37 and -2.48 ± 0.3.
Consider UCACAGCAAUAUUACGGUGC, for which the “self-splicing fitness (ln)” value reads like this: (30 °C) -3.04 ± 0.18; (37 °C) -1.47 ± 0.14.
The corresponding values for GGCUAGCAAUAUUACGCGGG are -3.62 ± 0.25 and -3.06 ± 0.27.
